Assay: soluble fraction after stress (log2 fold change); higher = more stays soluble; pooled small domains, quantitative proteomics
Details: stress: pH 4
Procedure, shortened: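 Pooled custom libraries of small protein domains were subjected to pH 4 and measured by high-throughput quantitative proteomics. The log2 fold change in soluble amount per domain is reported, higher values meaning more remained soluble. This is used as a measure of aggregation propensity.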

Row | Sequence | soluble fraction (log2)
1 | HMSNPPIRIGKKALHELLTTWLSLLSRDGVAYLVVQKNLGADSLTAWLRDQGFPSEKIASKKGFRIIEVH | 0.0506
2 | HMKGIHDYITKDGLRVVKVHYSADPDKDVTTVEGKKWMAKALLGYPGGLEGAKWRREMEIDFNA | -0.258
3 | HMEDESSIERYLGSGAIKGIGPSLAARIVKKFGKDTFRIIEQEPERLAEIKGISERKAMEISTLMEEK | 0.0126
4 | HMISFLNFVRKEIDASQLKDSTKQNHLTTIGLLQSFKPSIEFKDLNYNFITSFEKYLYDAGYQM | 0.105
5 | HMRMTKPLPFDLAAFRNEFGFTKSIIMQEVGVSRHIYDNVERTNATPPEFYDDFVSFFQRHGQ | -0.203
6 | HMWNKGETKIPTQAQNELIKRRQAGATWTSLSEWLKATYGIDIHRTNIQRWYDKEVYLDQEN | -0.556
7 | HMSTQGRRIEILRHLTQTKKKADVNFVELGRTFGTSDTTIRKDLDWLIKNEYWENHGEWKPTQAGLNMI | -0.00179
8 | HMSGPDGLTEREIEVLRLLASGLSNRAIGERLYISTNTAANHVRSILLKTGAANRTQAAMYAADHEML | 0.0798
9 | HMEKINLIIEEDNNLRLDKVIAMQLQELSRTQIQDMINQGLVLVNQKKEKASYKTKLNDEIEITILD | -0.382
10 | HMTDGLTVPMQGVVIRYKAKKGDKVAVGDAVAVLEAMKMEQNIFANKSGTIKEIYIKEGTTVTPGDVLMSI | -0.89
11 | HMNNENELSSIISKVLEENPAEKERFLNGEKKLAGFFMGKIMKATKGTADPKKAAQLLNEIL | 0.271
12 | HMTLDEDYFYYTLKAKEGYYRLYKKLGVDRKIIDSLNPNLKEMGLQVGMVIRVPKSQTSDLSVKNSLLVE | -0.61
13 | HMRNERDRQLYAAMEKLKAEYREALYLVYFENMSYRDAAAVMAQTEKQISNLVYRGKQSLKTILEQEGF | -0.867
14 | HMAQRAADEARTHEILGLLRQARAALDHGGTARAARLRASIAEKLPAAPALPAWFARQLEQVDSQLAELQD | -0.568
15 | HMNPMRYLVVPSQETETWKEYLVSKEWLERKYRIETEGDNRAIPLSNLFPKIVPIELSNLEIIEKEAFS | -1.09
16 | HMTTMNSADLIKELEKAGWTLRGVKGSHHIYTHPARGGHLSVPHPKKDLGAGLARQLRKQAGL | 0.346
17 | HMRVPTVIGMDEGTAKATLANASLKSNIVYESDETKENGKVLSQGIEQNKEVKAGTTVEIKVNKIE | 0.22
18 | HMDHSSLIKKLRLERGLSQKKLAQGISQRSTLASFENNATKISYNILIQYLDRMNVTLEEYQFMLDGNNL | -1.33
19 | HMVAELAEMAENKNITSAQLALAWILKQSENIIPIPGTKRIKYLNENIEAVNVDLSKEDVENIENLLRKYP | -0.65
20 | HMADNILPAQTDAIKALATENGFSNESLEKYLIENYGTTIYGLSRNQGIQIINLFQSENPPKP | -0.207
21 | HMVEVPKVAGMSTAQGVSELEQKGFVVNRTESYDDTVPKGNIISQTPEGGTKVPSGSAVTIKISQGAE | -0.0558

Row | Sequence | soluble fraction (log2)
22 | HMSTSLIEFTIDRNNSIANKMIMDANIPEDILVVMIKRNGDVFVPNGSTKILPGDILVLSGNKLKY | -0.785
23 | HMQLKKDTILSYIEEKLIDSYNSNKGFTTQEISVALNMQRTNVSAILNNLVKENKLVKTKGKPVRYFLSG | -1.02
24 | HMLINFPNKLKRLRLANNLTQQELANILETTKQAVSSYESGKSTPSLNSLIKLSEHFNISLDSLVFD | -0.446
25 | HMSYIGEEKAKSIAVSNVKGAGTNNVVKVEFDYDDGRAVYEVKVVYNAMEYEFEIDASNGKILSRDAESIY | -0.027
26 | HMEEQKYEYHLGDVVYLGVDKYEILGITNNIVTLYDPEFPLLNKQLDFDEFEKRVKDNYANEHLKVT | -0.545
27 | HMDMSVDQFNQGIRGSELYQQFIHGRGLQQPDGKTREWTDADRNAWRRTLEASGVRIPDGMKIDNAGNLNE | -0.052
28 | HMYALGIPVSQYRRTTQVLGHESSYPIAYEDEKQDDDFYLFKFPNIDEYDFKKIVILLKQNGITT | -0.338
29 | HMKNTIPVPHIIGLSEQEARETLERAGLQLNVIKTEPNTKYESGQVTDTNPNEGIKVPKGTIVNVVLADS | -0.0342
30 | HMGTVQSVDRALLLLSEIGREPGGLVDLSTRVRLATSTTGRILATLEHAGAVVRGDDGIYHIGPLVHGMVS | 0.0724
31 | HMTPFVINVDRHGAVIINEKTVDIDEAVVLARQERSQGKSILLAGDKKAPYEAIIRVLDALKQAG | -0.464
32 | HMESFGVAIKRLREAQGWTRADFLRQLGKTGYYMHATTLKRIEEGEQIAKVHEAVIISRLFGVTVEEMG | -1.3
33 | HMITETIGANIKTLRDKFRMSQQDLASKMNTARPVISNWENGKTEPSSSQLLKLAKIFDTSTDKILGNV | 0.345
34 | HMDPSVTGLLTRLGISPQTAQELAGQYEEPYILEKIAIVEAHPEYVKNAAGFVITALQEDWKD | -1.37
35 | HMGERMELTLDNPREAIPVLDAMGFANYQVVDKEHIHIFERLNESALVNMELAKAGIPVKGISITSE | -0.523
36 | HMDRVTYPVSFNGKVRFQLELDAGMNAKEVETAALGHEKTAAQIEGKTIRKVIVVPGRIINIVV | -0.404
37 | HMVISAKRMQDRRDSILDAAREAFARAGFEGTSIADIARRAGVSDGLVYRYFASKRDLLNAVLTA | 0.216
38 | HMTKRTVKSVARKIADFNRERHRMPTYEEMLTLLAVRSKSVVHFWMNKLLQEGILEKDESGHLTFV | 0.14
39 | HMPTTRPEAEAHYETHQRYHDLQIDVEGREAFKVATGSLTLVQEFDEKDDYDLSIPTPRSPAILLTT | -0.208
40 | HMRPSGTAGILRYLSSGAIRGIGATTAQRLVSEFGEKTLDVMENEPERVAMLKGISKSKAEDFSLQLKQS | 0.0932
41 | HMELSAEGWVDGTGVRMRASASTDSEVVRVTEDGESLDITGVSGTWYRVTAGGVSGYIRSDYVSLEEP | -0.186

Reference: the domain aggregation screens of Martell et al. (2025)
